Biological target: N-terminal domain of MDM2 (M6-N125) (UniProt Q00987 6-125)
Experiment: fluorescence polarisation

N-terminal domain of MDM2 (M6-N125), sequence (Q00987 6-125): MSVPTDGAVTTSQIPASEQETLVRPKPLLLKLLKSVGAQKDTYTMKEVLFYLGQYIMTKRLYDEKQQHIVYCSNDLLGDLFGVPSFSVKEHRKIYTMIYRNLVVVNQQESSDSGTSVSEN

binding result: binds
B1: FAM labeled 12-1 peptide (peptide)
peptide: {FAM}-RFMDYWEGL-NH2

Source: article PMC6277172 (Protein Engineering, Design and Selection, 2018)
